Reference: the RNAGym collection of RNA variant scans (doi:10.7554/elife.90254)

B1: LINE1-full (parent)
chain: UACGUAGGUGGUUUUCCCCUGAUAGUGCUAAGGGGGCCUGGAAGUUUGGACUGGGCAGAGCUCAACACAGCGUGGCAAAGUGGCUGUGGCUAGACUGCCUCUCUGGAUUCCUCGUCACUCAGCAGGGCAUCUCUGAGAGAAAUGCC

Variants of: B1
Experiment: self-cleavage, relative activity (ratio to wild type); higher = more cleavage; in vitro, sequencing; the parent is a self-cleaving ribozyme
In the case of UACGUAGGUGGUUUUCCCCUGAUAGUGCUAACGGGGCCUGGAAGUUUGGACUGGGCAGAGCUCAACACAGCGUGGCAAAGAGGCUGUGGCUAGACUGCCUCUCUGGAUUCCUCGUCACUCAGCAGGGCAUCUCUGAGAGAAAUGCC, the self-cleavage is reported as 1.9. Variant UACGUAGGUGGUUUUCCCCUGAUAGUGCUAAGGGGGCCUGGAAGUUUGGACUGGGCAGAGCUCAACACAGCGUGGCAAAGUGGCUGUGGCUAGACUGCCUCUCUGGAUUCCUCGUCACUCUGCAGGGCAUCUCUGAGAGGAAUGCC has a self-cleavage of 1.18. UACGUAGGUGGUUUUCCCCUGAUAGUGCUAAGGGGGCCUGGAAGUUUGGACUGGGCUGAGCUCAACACAGCGUGGCAAAGUGGCUGUGGCUAGACUGCCUCUCUGGAUUCCUCGUCACUCAGCAGGGCAUCUCUGAGAGAAAUGUC showed a self-cleavage of 0.08. Variant UACGUUGGUGGUUUUCCCCUGAUAGUGCUAAGGGGGCCUGGAAGUUUGGACUGGGCAGAGCUCAACACAGCGUGGCAAAGUGGCUGUGGCCAGACUGCCUCUCUGGAUUCCUCGUCACUCAGCAGGGCAUCUCUGAGAGAAAUGCC has a self-cleavage of 0.52. UACAUAGGUGGUUUUCCCCUGAUAGUGCUAAGGGGGCCUGGAAGUUUGGACUGGGCAGAGCUCAACACAGCGUGGCAAUGUGGCUGUGGCUAGACUGCCUCUCUGGAUUCCUCGUCACUCAGCAGGGCAUCUCUGAGAGAAAUGCC gave a self-cleavage of 0.64. UACGUAGGUGGUCUUCCCCUGAUAGUGCUAAGGGGGCCUGGAAGUUUGGACUGGGCAGAGCUCAACACAGCGUGGCAAAGUGGCUGUGGCUAGACUGCCUCUCUGGAUUCCUCGUCAUUCAGCAGGGCAUCUCUGAGAGAAAUGCC gave a self-cleavage of 0.99. UACGUAGGUGGUUUUCCCCUGAUAGUGCUAAGGGGGCCUGGAAGCUUGGACUGGGCAGAGCUCAACACAGCGUGGCAAAGUGGCUGUGGCUAGACUGCCUCUCUGGAUUCCUCGUCACUCAGCAGGGCAUCUCUGAGAGGAAUGCC gave a self-cleavage of 1.41. In the case of UACGUAGGUGGUUUUCCCCUGAUAGUGCUAAGGGGGCCUGGAAGUUUGGACUGGGCAGGGCUCAACACACCGUGGCAAAGUGGCUGUGGCUAGACUGCCUCUCUGGAUUCCUCGUCACUCAGCAGGGCAUCUCUGAGAGAAAUGCC, the self-cleavage is reported as 0.04. Variant UCCGUAGGUGGUUUUCCCCUGAUAGUGCUAAGGGGGCCUGGAAGUUUGGACUGGGCAGAGCUCAACACAGCGUGGCAAAGUGGCUGUGGCUAGACUGCCUCUCUGGAUUCCUCGUCACUCAGCAGGGCAUCUCUGAGAGAAAAGCC has a self-cleavage of 1.85. In the case of UACGUAGGUGGUUUUCCCCUGAUAGUGCUAAGGGGGCCUGGAAUUUUGGACUGGGCAGAGCUCAACACAGCGUGGCAAAGUGGCUGUGGCUAGACGGCCUCUCUGGAUUCCUCGUCACUCAGCAGGGCAUCUCUGAGAGAAAUGCC, the self-cleavage is reported as 0.06. With UACGUAGGUGGUUCUCCCCUGAUAGUGCUAAGGGGGCCUGGAAGUUUGGACUGGGCAGAGCUCAACUCAGCGUGGCAAAGUGGCUGUGGCUAGACUGCCUCUCUGGAUUCCUCGUCACUCAGCAGGGCAUCUCUGAGAGAAAUGCC the self-cleavage was 0. UACGUAGGUGGUUUUCCCCUGAUAGUGCUAAGGGGGCCUGGAAGUUUGGACUGGGCAGAGCUCAACACAGCGUGGCAAAGUGGGUGUGGCUAGACAGCCUCUCUGGAUUCCUCGUCACUCAGCAGGGCAUCUCUGAGAGAAAUGCC gave a self-cleavage of 0.09. Variant UACGUAGGUGGUUUUCCCCUGAUAGUGCUAAGGGGGCCUGGAAGUUGGGACUGGGCAGAGCUCAACACGGCGUGGCAAAGUGGCUGUGGCUAGACUGCCUCUCUGGAUUCCUCGUCACUCAGCAGGGCAUCUCUGAGAGAAAUGCC has a self-cleavage of 0.67. In the case of UACGUAGGUGGUUUUCCCCUGAUAGUGCUAACGGGGCCUGGAAGUUUGGACUGGGCAGUGCUCAACACAGCGUGGCAAAGUGGCUGUGGCUAGACUGCCUCUCUGGAUUCCUCGUCACUCAGCAGGGCAUCUCUGAGAGAAAUGCC, the self-cleavage is reported as 0.78. Work on UACGUUGGUGGUUUUCCCCUGAUAGUGCUAAGGGGGCCUGGAAGCUUGGACUGGGCAGAGCUCAACACAGCGUGGCAAAGUGGCUGUGGCUAGACUGCCUCUCUGGAUUCCUCGUCACUCAGCAGGGCAUCUCUGAGAGAAAUGCC yielded a self-cleavage of 1.35. UACGUAGGUGGUUUUCCCCUGAUAGUGCUAAGGGGGCCUGGAAGUUUGGACUAGGCAGAGCCCAACACAGCGUGGCAAAGUGGCUGUGGCUAGACUGCCUCUCUGGAUUCCUCGUCACUCAGCAGGGCAUCUCUGAGAGAAAUGCC gave a self-cleavage of 0.05. UACGUAGGUGGUUUUCCCCUGAUAGUGCUAAGGGGGCCUGGAAGUUUGGACUGGGCAGAGCUCAACACGGCGUGGCAAAGUGGCUGUGGCUGGACUGCCUCUCUGGAUUCCUCGUCACUCAGCAGGGCAUCUCUGAGAGAAAUGCC gave a self-cleavage of 0.23. Work on UACGUAGGUGGAUUUCCCCUGAUAGUGCUAAGGGGGCCUGGAAGUUUGGACUGGGCAGAGCUCAACACAGCGUGGCAAAGUGGCCGUGGCUAGACUGCCUCUCUGGAUUCCUCGUCACUCAGCAGGGCAUCUCUGAGAGAAAUGCC yielded a self-cleavage of 0.2. With UACGUAGGUGGUUUUCCCCUGAUAGUGCUAAGGGGGCCUGGAAGUUUGGACCGGGCAGAGCUCAACACAGCGUGGCAAAGUGGCUGUGGCUAGACUGCCUCUCUGGAUUCCUCGUCACUCAGCAGGGCAUCUCUGAGAGAAAGGCC the self-cleavage was 1.6.
